# Measurements: patent publication US20080032921A1
# Where two headings read alike, the source gives them in different places.
# Legend:
# [1] = target: purified HLA-DR molecule DRB1*1302 (human); experiment: competition with 125I-labelled peptide for purified HLA
# [2] = target: purified HLA-DR molecule DRB1*0101 (human); experiment: as above
# [3] = target: purified HLA-DR molecule DRB1*0404 (human); experiment: as above
# [4] = target: purified HLA-DR molecule DRB1*0401 (human); experiment: as above
# [5] = target: purified HLA-DR molecule DRB1*0301 (human); experiment: as above
# [6] = target: purified HLA-DR molecule DRB1*0405 (human); experiment: as above
# HLA-DR DRB1*0401 (human) [7] = experiment: competition with 125I-labeled reference peptide, purified HLA
# HLA-DR DRB1*0101 (human) [8] = experiment: as above
# HLA-DR DRB1*0405 (human) [9] = experiment: as above
# HLA-DR DRB1*0404 (human) [10] = experiment: as above
# HLA-DR DRB1*1302 (human) [11] = experiment: as above
# HLA-DR DRB1*0301 (human) [12] = experiment: as above
# [13] = target: purified HLA-DR DRB1*0405 (human); experiment: competition with 125I-labelled reference peptide, purified HLA
# [14] = target: purified HLA-DR DRB1*0301 (human); experiment: as above
# [15] = target: purified HLA-DR DRB1*0101 (human); experiment: as above
# [16] = target: purified HLA-DR DRB1*0401 (human); experiment: as above
# [17] = target: purified HLA-DR DRB1*0404 (human); experiment: as above
# [18] = target: purified HLA-DR DRB1*1302 (human); experiment: as above
# HLA-DR DRB1*0401 (human) [19] = experiment: competition vs 125I-labeled peptide, purified HLA
# HLA-DR DRB1*1501 (human) [20] = experiment: competition vs 125I-labeled peptide, purified HLA
# HLA-DR DRB4*0101 (human) [21] = experiment: competition vs 125I-labeled peptide, purified HLA
# HLA-DR DRB1*1302 (human) [22] = experiment: competition vs 125I-labeled peptide, purified HLA
# HLA-DR DRB1*0301 (human) [23] = experiment: competition vs 125I-labeled peptide, purified HLA
# HLA-DR DRB1*0101 (human) [24] = target: HLA-DR DRB1*0101 (human)
# HLA-DR DRB1*0101 (human) [25] = experiment: competition vs 125I-labeled peptide, purified HLA
# [26] = target: purified HLA DRB1*1302 (human); experiment: competition with 125I-labelled peptide for purified HLA
# [27] = target: purified HLA DRB1*0401 (human); experiment: as above
# [28] = target: purified HLA DRB1*0101 (human); experiment: as above
# [29] = target: purified HLA DRB4*0101 (human); experiment: as above
# [30] = target: purified HLA DRB1*1501 (human); experiment: as above
# HLA-DR DRB1*0401 (human) [31] = experiment: competition with 125I-labelled peptide, purified HLA
# HLA-DR DRB1*0101 (human) [32] = experiment: as above
# HLA-DR DRB1*0405 (human) [33] = experiment: as above
# HLA-DR DRB1*0404 (human) [34] = experiment: as above
# HLA-DR DRB1*1302 (human) [35] = experiment: as above
# HLA-DR DRB1*0301 (human) [36] = experiment: as above
# HLA-DR DRB1*0401 (human) [37] = experiment: competition assay, purified HLA, inhibition of 125I-labelled reference peptide
# HLA-DR DRB1*0101 (human) [38] = experiment: as above
# HLA-DR DRB1*0405 (human) [39] = experiment: as above
# HLA-DR DRB1*0404 (human) [40] = experiment: as above
# HLA-DR DRB1*1302 (human) [41] = experiment: as above
# HLA-DR DRB1*0401 (human) [42] = experiment: competition with 125I-labelled reference peptide on purified HLA-DR
# HLA-DR DRB1*1501 (human) [43] = experiment: as above
# HLA-DR DRB1*0101 (human) [44] = experiment: as above
# HLA-DR DRB4*0101 (human) [45] = experiment: as above
# HLA-DR DRB1*1302 (human) [46] = experiment: as above
binder,measurement,setting,value
RGILEDEQMYQKCCN (modifications not checked) [… (Flu.PB1.683)],IC50,[1],18000 nM
same,IC50,[2],199 nM
same,IC50,[3],10500 nM
same,IC50,[4],5740 nM
same,IC50,[5],43 nM
same,IC50,[6],3280 nM
QRGILEDEQMYQKCC (modifications not checked) [… (Flu.PB1.682)],IC50,[1],10900 nM
same,IC50,[2],433 nM
same,IC50,[3],3270 nM
same,IC50,[4],2560 nM
same,IC50,[5],34 nM
same,IC50,[6],700 nM
RNYFTAEVSHCRATE (modifications not checked) [Flu.PA.446],IC50,HLA-DR DRB1*0401 (human) [7],45 nM
same,IC50,HLA-DR DRB1*0101 (human) [8],627 nM
same,IC50,HLA-DR DRB1*0405 (human) [9],5720 nM
same,IC50,HLA-DR DRB1*0404 (human) [10],7600 nM
same,IC50,HLA-DR DRB1*1302 (human) [11],> 10000 nM
same,IC50,HLA-DR DRB1*0301 (human) [12],883 nM
AMVFSQEDCMIKAVR (modifications not checked) [Flu.PB2.404],IC50,[13],6780 nM
same,IC50,[14],718 nM
same,IC50,[15],11000 nM
same,IC50,[16],3280 nM
same,IC50,[17],336 nM
same,IC50,[18],9200 nM
VSLVKSDQICIGYHA (modifications not checked) [Flu.HA.11],IC50,HLA-DR DRB1*0401 (human) [19],513 nM
same,IC50,HLA-DR DRB1*1501 (human) [20],14500 nM
same,IC50,HLA-DR DRB4*0101 (human) [21],32 nM
same,IC50,HLA-DR DRB1*1302 (human) [22],175 nM
same,IC50,HLA-DR DRB1*0301 (human) [23],511 nM
same,IC50,HLA-DR DRB1*0101 (human) [24],> 10000 nM
CPKYVKSNRLVLATGL (modifications not checked) [Flu.HA.318],IC50,HLA-DR DRB1*0401 (human) [19],868 nM
same,IC50,HLA-DR DRB1*1501 (human) [20],230 nM
same,IC50,HLA-DR DRB1*0101 (human) [25],2760 nM
same,IC50,HLA-DR DRB4*0101 (human) [21],287 nM
same,IC50,HLA-DR DRB1*1302 (human) [22],48 nM
same,IC50,HLA-DR DRB1*0301 (human) [23],2920 nM
LLVLMENERTLDFHD (modifications not checked) [Flu.HA.444],IC50,HLA-DR DRB1*0301 (human) [23],64 nM
ILSIYSTVASSLALAI (modifications not checked) [Flu.HA.532 peptide …],IC50,[26],7.6 nM
same,IC50,[27],91 nM
same,IC50,[28],11 nM
same,IC50,[29],824 nM
same,IC50,[30],20 nM
EECLINDPWVLLNAS (modifications not checked) [Flu.PA.694],IC50,HLA-DR DRB1*0401 (human) [31],1220 nM
same,IC50,HLA-DR DRB1*0101 (human) [32],34 nM
same,IC50,HLA-DR DRB1*0405 (human) [33],15000 nM
same,IC50,HLA-DR DRB1*0404 (human) [34],183 nM
same,IC50,HLA-DR DRB1*1302 (human) [35],246 nM
same,IC50,HLA-DR DRB1*0301 (human) [36],618 nM
PVHFRNQVKIRRRVD (modifications not checked) [… (Flu.PB2.135)],IC50,[1],359 nM
same,IC50,[2],2970 nM
same,IC50,[3],5980 nM
same,IC50,[4],1300 nM
same,IC50,[5],458 nM
same,IC50,[6],6040 nM
VERILKEESDEALKM (modifications not checked) [Flu.NS1.68],IC50,HLA-DR DRB1*0401 (human) [37],679 nM
same,IC50,HLA-DR DRB1*0101 (human) [38],5190 nM
same,IC50,HLA-DR DRB1*0405 (human) [39],> 10000 nM
same,IC50,HLA-DR DRB1*0404 (human) [40],572 nM
same,IC50,HLA-DR DRB1*1302 (human) [41],5060 nM
SLMLQIGNMISIWVSHS (modifications not checked) [Flu.NA.21 peptide …],IC50,[26],44 nM
same,IC50,[27],480 nM
same,IC50,[28],36 nM
same,IC50,[29],746 nM
same,IC50,[30],34 nM
same,IC50,HLA-DR DRB1*0401 (human) [42],480 nM
same,IC50,HLA-DR DRB1*1501 (human) [43],34 nM
same,IC50,HLA-DR DRB1*0101 (human) [44],36 nM
same,IC50,HLA-DR DRB4*0101 (human) [45],746 nM
same,IC50,HLA-DR DRB1*1302 (human) [46],44 nM
LKQYDSDEPELRSLS (modifications not checked) [Flu.PA.393],IC50,HLA-DR DRB1*0401 (human) [7],7260 nM
same,IC50,HLA-DR DRB1*0101 (human) [8],17700 nM
same,IC50,HLA-DR DRB1*0405 (human) [9],> 10000 nM
same,IC50,HLA-DR DRB1*0404 (human) [10],5800 nM
same,IC50,HLA-DR DRB1*1302 (human) [11],> 10000 nM
same,IC50,HLA-DR DRB1*0301 (human) [12],88 nM
FNPMIVELAEKTMKE (modifications not checked) [Flu.PA.12],IC50,HLA-DR DRB1*0401 (human) [7],29 nM
same,IC50,HLA-DR DRB1*0101 (human) [8],48 nM
same,IC50,HLA-DR DRB1*0405 (human) [9],1240 nM
same,IC50,HLA-DR DRB1*0404 (human) [10],610 nM
same,IC50,HLA-DR DRB1*1302 (human) [11],1250 nM
same,IC50,HLA-DR DRB1*0301 (human) [12],744 nM
RVVVSIDRFLRVRDQ (modifications not checked) [Flu.PB2.496],IC50,[13],2050 nM
same,IC50,[14],67 nM
same,IC50,[15],1860 nM
same,IC50,[16],111 nM
same,IC50,[17],400 nM
same,IC50,[18],8.1 nM
VSKMGVDEYSSTERV (modifications not checked) [Flu.PB2.483],IC50,[14],1020 nM
same,IC50,[18],1850 nM
FLILGKEDRRYGPAL (modifications not checked) [Flu.PB2.697],IC50,[14],565 nM
same,IC50,[15],8390 nM
same,IC50,[16],1740 nM
same,IC50,[18],118 nM
MVAYMLERELVRKTR (modifications not checked) [… (Flu.PB2.205)],IC50,[1],2080 nM
same,IC50,[2],97 nM
same,IC50,[3],499 nM
same,IC50,[4],166 nM
same,IC50,[5],878 nM
same,IC50,[6],5540 nM
IYQILSIYSTVASSLA (modifications not checked) [Flu.HA.529 peptide …],IC50,[26],13 nM
same,IC50,[27],89 nM
same,IC50,[28],55 nM
same,IC50,[29],18 nM
same,IC50,[30],4.7 nM
LRNLMSQSRTREILT (modifications not checked) [LRNLMS1SRTREILT (Flu.PB2.10)],IC50,[1],5.4 nM
same,IC50,[2],613 nM
same,IC50,[3],170 nM
same,IC50,[4],4970 nM
same,IC50,[5],978 nM
same,IC50,[6],9690 nM
LEGFSAESRKLLLVV (modifications not checked) [Flu.PA.658],IC50,HLA-DR DRB1*0401 (human) [31],861 nM
same,IC50,HLA-DR DRB1*0101 (human) [32],12 nM
same,IC50,HLA-DR DRB1*0405 (human) [33],3860 nM
same,IC50,HLA-DR DRB1*0404 (human) [34],1150 nM
same,IC50,HLA-DR DRB1*1302 (human) [35],2270 nM
same,IC50,HLA-DR DRB1*0301 (human) [36],661 nM
